Series [1] has as its target human tissue plasminogen activator (htPA) (Homo sapiens) (UniProt P00750). The series can be described thus: filter. The settings on record: 150 mM NaAc, 50 mM Tris-acetate pH 7.5.
Series [2] concerns the target T1, T4 DNA polymerase (gp43) (Bacteriophage T4) (UniProt P04415).
T1 sequence: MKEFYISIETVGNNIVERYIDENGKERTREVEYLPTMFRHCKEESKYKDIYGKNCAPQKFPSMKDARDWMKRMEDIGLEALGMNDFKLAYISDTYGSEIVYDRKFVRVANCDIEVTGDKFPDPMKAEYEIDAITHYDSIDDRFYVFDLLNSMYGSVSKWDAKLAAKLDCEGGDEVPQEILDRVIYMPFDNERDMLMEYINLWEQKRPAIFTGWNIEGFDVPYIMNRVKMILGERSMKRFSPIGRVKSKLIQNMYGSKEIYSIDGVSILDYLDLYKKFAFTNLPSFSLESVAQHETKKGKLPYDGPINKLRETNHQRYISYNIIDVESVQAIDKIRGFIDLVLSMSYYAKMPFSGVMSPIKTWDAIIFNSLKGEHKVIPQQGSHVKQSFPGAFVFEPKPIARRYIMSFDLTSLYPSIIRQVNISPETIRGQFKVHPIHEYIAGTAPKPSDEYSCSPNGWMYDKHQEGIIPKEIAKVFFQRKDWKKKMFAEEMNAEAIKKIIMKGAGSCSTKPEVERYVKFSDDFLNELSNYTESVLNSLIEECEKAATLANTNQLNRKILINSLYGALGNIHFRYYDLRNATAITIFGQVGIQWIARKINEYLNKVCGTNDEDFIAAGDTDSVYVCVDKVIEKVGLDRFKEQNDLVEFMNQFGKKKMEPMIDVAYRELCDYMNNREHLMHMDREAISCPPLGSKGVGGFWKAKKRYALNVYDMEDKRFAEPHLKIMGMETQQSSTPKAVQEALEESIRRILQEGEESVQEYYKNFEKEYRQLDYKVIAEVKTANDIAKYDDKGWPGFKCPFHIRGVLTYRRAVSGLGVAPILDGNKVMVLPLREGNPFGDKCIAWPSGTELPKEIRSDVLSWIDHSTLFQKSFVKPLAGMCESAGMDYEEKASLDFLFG
The series is described as follows: FP. As to conditions: filter binding; 200 mM KOAc, 50 mM Tris-HCl pH 7.7, 37 C.

The target in series [3] is HIV-1 reverse transcriptase p66/p51 heterodimer (Human immunodeficiency virus 1) (UniProt P04585+P04585). The series is described as follows: filter. As to conditions: half-maximal binding; 200 mM KOAc, 50 mM Tris-HCl pH 7.7, 10 mM DTT.
Series [4] concerns the target T1, T4 DNA polymerase (gp43) (Bacteriophage T4). The series can be described thus: filter. The settings on record: random loop population, 50-fold lower affinity.

Chain of human tissue plasminogen activator (htPA) (Homo sapiens) (P00750 36-562): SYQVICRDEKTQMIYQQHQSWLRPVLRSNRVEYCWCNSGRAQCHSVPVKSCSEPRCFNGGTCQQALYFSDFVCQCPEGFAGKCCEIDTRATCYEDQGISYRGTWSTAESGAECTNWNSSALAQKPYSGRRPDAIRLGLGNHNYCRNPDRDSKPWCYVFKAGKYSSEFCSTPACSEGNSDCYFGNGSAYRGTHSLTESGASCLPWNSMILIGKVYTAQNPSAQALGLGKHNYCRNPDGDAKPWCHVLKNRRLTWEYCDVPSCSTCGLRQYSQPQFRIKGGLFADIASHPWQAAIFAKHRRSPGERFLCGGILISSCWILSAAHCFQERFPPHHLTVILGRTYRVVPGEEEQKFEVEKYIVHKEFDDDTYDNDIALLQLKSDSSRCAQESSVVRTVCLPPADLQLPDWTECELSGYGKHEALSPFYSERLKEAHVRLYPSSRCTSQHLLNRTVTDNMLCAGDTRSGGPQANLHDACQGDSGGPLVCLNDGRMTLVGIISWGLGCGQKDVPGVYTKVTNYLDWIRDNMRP

Broadly, the Kd is a measure of binding affinity in units of concentration. A lower Kd goes with a tighter complex. As to “GGGAGCUCAGAAUAAACGCUCAANNNNNNNNNNNNNNNNNNNNNNNNNNNNNNUUCGACAUGAGGCCCGGAUCCGGC [30N candidate pool]”, the Kd in series [1] amounted to 70 nM.
Regarding “AUAUUCCUUAGUUUAUAGCCCNNNNNNNNAGGCUCUUGAUUG [gp43 RNA wild-type loop AAUAACUC]”, the Kd in series [2] came to 5 nM.
For “GGGAGCAUCAGACUUUUAAUCUGACAAUCAAGNNNNNNNNNNNNNNNNNNNNNNNNNNNNNNNNAUCUAUGAAAGAAUUUUAUAUCUCUAUUGAAAC”, the K half in series [3] was determined as 700 nM.
As to “AUAUUCCUUAGUUUAUAGCCCNNNNNNNNAGGCUCUUGAUUG [gene 43 operator RNA random 8N loop pool]”, in series [4], the Kd was determined as 250 nM. That is a sub-micromolar value.

The values above are taken from patent US5670637.
